In patent US20220229058A1 one finds Kd, koff and kon data, which are given here for twelve molecules.

Assay [1] has as its target norovirus GII.3 TCH strain virus-like particle (VLP) (norovirus GII.3 TCH strain). In words: BLI (BLItz), biotinylated peptide on SA chip, VLP in solution.
Assay [2] concerns the target norovirus GII.17 Saitama strain virus-like particle (VLP) (norovirus GII.17 Saitama strain). The description is as above.

A word on the Kd: it is the concentration at which binding is half-saturated. The low end stands for higher affinity, the high end for lower affinity. Broadly, the koff is a measure of how fast the partners let go of each other. Lower therefore signals a long-lived complex. As a reminder, the kon is the rate constant with which the complex forms. Low values mean slow association, high ones fast association.

Where no end group is shown, it is not given here.

B1: norovirus-binding peptide of SEQ ID NO: 163 (peptide)
peptide: SVMVTRSLFG
modifications: also: biotinylated, residue not given here, spacer sequence added, letters and position not given here
In assay [1], B1 came in with a Kd of 0.00766 µM, a koff of 0.00786 s⁻¹ and a kon of 1.03e+06 M⁻¹ s⁻¹. In addition, in assay [2], the Kd is 0.168 µM, the off-rate (koff) is 0.0185 s⁻¹ and the kon worked out at 110000 M⁻¹ s⁻¹.

B2: norovirus-binding peptide of SEQ ID NO: 155 (peptide)
peptide: VELFLLTSSC
modifications: also: biotinylated, residue not given here, spacer sequence added, letters and position not given here
In assay [1], B2 came in with an equilibrium dissociation constant (Kd) of 803 µM, a koff of 0.0926 s⁻¹ and an association rate constant (kon) of 115 M⁻¹ s⁻¹.

B3: norovirus-binding peptide of SEQ ID NO: 156 (peptide)
peptide: VVGFGRRSLF
modifications: also: biotinylated, residue not given here, spacer sequence added, letters and position not given here
For the molecule B3, in assay [1], the Kd turned out to be 1.06 µM, the koff was 0.0713 s⁻¹ and the kon was determined as 67300 M⁻¹ s⁻¹. For the same molecule, in assay [2], the Kd amounted to 234 µM, the koff was 0.0931 s⁻¹ and the kon was determined as 398 M⁻¹ s⁻¹.

B4: norovirus-binding peptide of SEQ ID NO: 154 (peptide)
peptide: ECMGRRWMSS
modifications: also: biotinylated, residue not given here, spacer sequence added, letters and position not given here
In assay [1], B4 came in with a Kd of 0.123 µM, a koff of 0.0173 s⁻¹ and a kon of 141000 M⁻¹ s⁻¹.

B5: norovirus-binding peptide of SEQ ID NO: 43 (peptide)
peptide: YVIRNSDRHN
modifications: also: biotinylated, residue not given here, spacer sequence added, letters and position not given here
In assay [1], B5 registered a Kd of 0.0672 µM, a koff of 0.0793 s⁻¹ and a kon of 1.18e+06 M⁻¹ s⁻¹. In assay [2], this molecule registered a Kd of 234 µM, a koff of 0.192 s⁻¹ and a kon of 822 M⁻¹ s⁻¹.

B6: norovirus-binding peptide of SEQ ID NO: 48 (peptide)
peptide: ICSSWFPSVH
modifications: also: biotinylated, residue not given here, spacer sequence added, letters and position not given here
For B6, in assay [1], the Kd turned out to be 0.0303 µM, the koff turned out to be 0.0246 s⁻¹ and the kon was 810000 M⁻¹ s⁻¹. In assay [2], this molecule displayed a Kd of 0.0766 µM, a koff of 0.0978 s⁻¹ and a kon of 1.28e+06 M⁻¹ s⁻¹.

B7: norovirus-binding peptide of SEQ ID NO: 172 (peptide)
peptide: GCVGDLYCSA
modifications: cysteine pairing not given here; also: biotinylated, residue not given here, spacer sequence added, letters and position not given here
With B7, in assay [1], the Kd was 69.3 µM, the koff came to 0.0131 s⁻¹ and the kon amounted to 189 M⁻¹ s⁻¹.

B8: norovirus-binding peptide of SEQ ID NO: 143 (peptide)
peptide: YVVASKSNRL
modifications: also: biotinylated, residue not given here, spacer sequence added, letters and position not given here
With B8, in assay [1], the Kd worked out at 0.0135 µM, the koff came out at 0.0044 s⁻¹ and the kon was determined as 325000 M⁻¹ s⁻¹.

B9: norovirus-binding peptide of SEQ ID NO: 150 (peptide)
peptide: VCVDNDISMS
modifications: also: biotinylated, residue not given here, spacer sequence added, letters and position not given here
Consider B9, for which, in assay [1], the Kd is 0.437 µM, the koff came out at 0.0118 s⁻¹ and the kon worked out at 27000 M⁻¹ s⁻¹. In assay [2], this molecule came in with a dissociation constant (Kd) of 2510 µM and a koff of 0.255 s⁻¹.

B10: norovirus-binding peptide of SEQ ID NO: 52 (peptide)
peptide: KYRATICHTV
modifications: also: biotinylated, residue not given here, spacer sequence added, letters and position not given here
B10: in assay [1], the Kd stood at 0.0138 µM, the koff is 0.0103 s⁻¹ and the kon came to 747000 M⁻¹ s⁻¹. In assay [2], this molecule gave a Kd of 0.0179 µM, a koff of 0.0232 s⁻¹ and an on-rate (kon) of 1.29e+06 M⁻¹ s⁻¹.

B11: norovirus-binding peptide of SEQ ID NO: 59 (peptide)
peptide: YRRSKSEIFV
modifications: also: biotinylated, residue not given here, spacer sequence added, letters and position not given here
In assay [1], B11 showed a Kd of 0.00887 µM, a koff of 0.00714 s⁻¹ and a kon of 805000 M⁻¹ s⁻¹. In assay [2], this molecule came in with a Kd of 0.383 µM, a koff of 0.0511 s⁻¹ and a kon of 134000 M⁻¹ s⁻¹.

B12: norovirus-binding peptide of SEQ ID NO: 131 (peptide)
peptide: NFRVPIRFTH
modifications: also: biotinylated, residue not given here, spacer sequence added, letters and position not given here
Regarding B12, in assay [1], the Kd amounted to 157 µM, the off-rate (koff) is 0.262 s⁻¹ and the on-rate constant (kon) worked out at 1660 M⁻¹ s⁻¹.
